Assay results: paper PMC9357155 (Cancer Discovery, 2022)
Where a chain is given by its changes, count along the chain named. In names and notes the source's numbering stands.

T1: Full-length His-tagged MALT1 (human, UniProt Q9UDY8 1-824)
T1 sequence: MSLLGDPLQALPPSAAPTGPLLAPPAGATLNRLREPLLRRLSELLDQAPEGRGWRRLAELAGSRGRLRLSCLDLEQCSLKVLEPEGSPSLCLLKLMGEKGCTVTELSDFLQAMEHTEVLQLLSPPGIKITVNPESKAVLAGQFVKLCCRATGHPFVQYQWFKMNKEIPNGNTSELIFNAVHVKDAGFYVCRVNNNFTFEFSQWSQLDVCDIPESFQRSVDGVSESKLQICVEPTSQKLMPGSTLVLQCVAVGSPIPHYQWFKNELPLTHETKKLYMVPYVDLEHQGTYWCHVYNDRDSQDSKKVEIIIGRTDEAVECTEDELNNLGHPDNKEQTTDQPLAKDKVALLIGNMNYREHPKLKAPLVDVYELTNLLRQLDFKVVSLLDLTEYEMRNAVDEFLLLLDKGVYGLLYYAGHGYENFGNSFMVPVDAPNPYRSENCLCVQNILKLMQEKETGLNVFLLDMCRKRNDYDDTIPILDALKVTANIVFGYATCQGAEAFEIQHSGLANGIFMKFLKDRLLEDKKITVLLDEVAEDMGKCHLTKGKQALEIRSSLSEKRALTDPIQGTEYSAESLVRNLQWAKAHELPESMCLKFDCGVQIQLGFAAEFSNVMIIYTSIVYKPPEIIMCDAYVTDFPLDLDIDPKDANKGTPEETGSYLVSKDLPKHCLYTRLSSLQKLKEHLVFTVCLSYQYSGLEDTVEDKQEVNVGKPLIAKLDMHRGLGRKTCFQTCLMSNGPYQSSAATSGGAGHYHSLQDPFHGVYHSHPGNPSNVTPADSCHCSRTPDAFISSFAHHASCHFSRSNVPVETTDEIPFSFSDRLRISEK

B1: BCL10 wild type, full length, after removal of the MBP tag by 3C protease (natural protein)
chain: MEPTAPSLTEEDLTEVKKDALENLRVYLCEKIIAERHFDHLRAKKILSREDTEEISCRTSSRKRAGKLLDYLQENPKGLDTLVESIRREKTQNFLIQKITDEVLKLRNIKLEHLKGLKCSSCEPFPDGATNNLSRSNSDESNFSEKLRASTVMYHPEGESSTTPFFSTNSSLNLPVLEVGRTENTIFSSTTLPRPGDPGAPPLPPDLQLEEEGTCANSSEMFLPLRSRTVSRQ
modifications: Alexa488 (C5-maleimide) on cysteine residues in the confocal and quenching assays; not labelled for EM
B2: BCL10 R58Q, full length, after removal of the MBP tag by 3C protease (natural protein)
chain: B1 chain with R58Q
modifications: Alexa488 (C5-maleimide) on cysteine residues in the confocal and quenching assays; not labelled for EM
B3: BCL10 E140X truncation mutant, after removal of the MBP tag by 3C protease (domain or fragment)
chain: MEPTAPSLTEEDLTEVKKDALENLRVYLCEKIIAERHFDHLRAKKILSREDTEEISCRTSSRKRAGKLLDYLQENPKGLDTLVESIRREKTQNFLIQKITDEVLKLRNIKLEHLKGLKCSSCEPFPDGATNNLSRSNSD
modifications: Alexa488 (C5-maleimide) on cysteine residues in the confocal and quenching assays; not labelled for EM
B4: MBP-fused BCL10 E140X (domain or fragment)
chain: B3 chain

Tests used:
[1] = molecular target: T1, Full-length His-tagged MALT1; assay: negative-stain EM
[2] = molecular target: T1, Full-length His-tagged MALT1; assay: fluorescence quenching polymerisation assay
SEC = molecular target: the molecule itself; assay: SEC

Binder | binding result [1] | other results
B1 | binds | –
B2 | – | binding result [2]: binds
B3 | binds | –
B4 | – | binding result (SEC): binds
